# Data from the nanobody polyreactivity screen of Harvey et al. (2022).
# Test: yeast display, Sf9 membrane polyspecificity reagent, FACS + sequencing; frameworks hold sequencing errors
# Method in brief: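 Galactose induction of a Saccharomyces cerevisiae BJ5465 synthetic nanobody display library ran 36–48 hours. The cells were then stained for 1 hour at 4 °C with 10% biotinylated, detergent-solubilized Sf9 membrane reagent, pulled down on streptavidin microbeads and FACS-sorted into low and high (top ~1%) gates on expression and reagent-binding fluorescence. Labels for polyreactivity follow the gate of origin.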
row,Sequence,polyreactivity (PSR sort gate)
1,QVQIVESRGGLVQAGGSLRLSCAASGFIIYKYALGWYRQAPRKERELVAAISSSGGNTYYADSVKGRFTNSRDNAKNTVFLQMMSLKPEDTAVYYCAADYYVSKSRYYSYGYWGQGTQVTVSS,high polyreactivity
2,QVQLVESGGGLVQAGGSLRLSCAASGLIFYAKAMGWYRQAPGKEREFVAAITYRGGSTYYADSVKGRFTISRDKAKNTVYLQMNCLKPEATAVYYCATVTDRYPYIRRYHFPYYYWGQGTQVTVSS,high polyreactivity
3,QVQLVESGGGLVQAGGSLRLSCAASGSIFGSNAMGWYRQAPGKERELVAAITNTGRTNYADSVKGRFTISRDNAKNTVYLQMNSLKPEDTAVYYCNTDCYEFTHFVGGWYQIIDYDYWGQGSQVTVSS,low polyreactivity
4,QVQLVESGGGLVQAGGSLRLSCAASGSTFTGYTMGWYRQAPGKEREFVAAISSRGGSTYYADSVKGRFTISRDNAKNTVFLQMNSLKPEETAVYYCAAKVWARVDGRQFRMEYWGQGTQVTVSS,high polyreactivity
5,QVQLVESGGGLVQAGGSLRLSCAASGGTFLRNAMGWYRQAPGKERELVAAISARGGSTRYADSVKGRFTISRDNAKNTVYLQMNSLKPEDTAVYYCDATSSHHRRMEYWGQGTQVTVSS,high polyreactivity
6,QVQLVESGGGLVQAGGSLRLTCAASGSTFYSNAMGWYRQATGKERELVASIRFSGVITTYADSVKGRFTISRDNAKNTVYLQMNSLKPEDTAVYYCAAGYLSTTAYDYWGQGTQVTVSS,low polyreactivity
7,QVQLVESGGGLVQAGGSLRLSCAASGSIFDPYAMGWYRQAPGKERELVAAITYSVGGTTYYADSVKGRFTISRDNAKNTVYLQMNSLKPEDTAVYYCAAEWWGNPFDYWGQGTQVTVSS,high polyreactivity
8,QLQLVESGGGLVQAGGSLRLSCAASGSIFASNAMGWYRQAPGKERELVAAISSGGSRTYYADSVKGRFTISRDNAKNSVYLQMNSLKPEDTAVYYCNTVWFYGAKYDYWGQGTQVTVSS,high polyreactivity
9,QVQLVESGVGLVQAGGSLRLSCAASGYIFYYYAMGWYRQAPGKESELVAAISSTVSTNYADSVKGRFTISRDNAKNTVYLQMNSLKPEDTAVYYCAAAQRVNHVWYDYWGQGTQVTVSS,low polyreactivity
10,QVQLVESGGGLVQAGGSLRLSCAASGFTLKYYAMGWYRQAPGKERELVAAITSSGVSTYYADSVKGRFTISRDNAKNTVYLQMNSLKPEDTAVYYCAALYWYSRSSWDYDYWGQGTQVTVSS,high polyreactivity
11,QVQLVESGGGLVQAGGSLRLSCAASGSIFRYYAMGWYRQAPGKERELVAAISNRGSSTNYADSVKGRFTISRDNAKNTVYLQMNSLKPEDTAVYYCAARVRYPGLSGNMYYWGQGTQVTVSS,high polyreactivity
12,QVQRVESGGGLVQAGGSLRLSCAASASIFASYAMGWYRQAPGKERELVASISRGGGTTYADSVKGRFTISRDNAKNTVYLQMNSLKPDDTAVYYCAARKVIRYRPYGYWGQGTQVTVSS,high polyreactivity
13,QVQLVESGGGLVQAGGSLRLSCAASGSIIGRYAMGWYRQAPGKERELVAAISKNGGSRYYADSVKGRFTISRDNAKNTVYLQMNSLKPEDTAVYYCNTVRYSCNYRDQEGDYWGQGTQVTVSS,high polyreactivity
14,QVQLVESGGGLVQAGGSLRLSCAASGFTFIRYAMGCYRQAPGKERELVAAIRGTGTSTYYADSVKGRFTISRDNAKNTVYLQMNSLKPEDTAVYYCNKVAGRSPYTRYDYWGQGTQVTVSS,low polyreactivity
15,QVQLVESGGGLVQAGGSLRLSCAASGRPFTWYALGWYRQAPGKEREVVAAISKSGGSTYYADSVKGRFTISRDNAKNTVYLQMNSLKPEDTAVYYCNADFYGYFLGYGYCGQGTQVTVSS,low polyreactivity
16,QVQLVESGGGLVQAGGSLRLSCAASGGTFKYYAMGWYRQAPGKERELVADITSGGSTNYADYVKGRFTISRDNAKNTVYLQMNSLKPEDTAVYYCAKRRYWVKYDYWGQGTQVTVSS,high polyreactivity
17,QVQLVESGGGLVQAGGSLRLSCAASGRTFPYYTMGWYRQAPGKERELVAAISSSGGSTYYADSVKGRFTISRDNAKNTVYLQMNSLKPEDTAVYYCNAGYRWTHFGSWGQGTQVTVSS,low polyreactivity
18,QVQLVESGGGLVQAGGSLRLSCAASGLTFRYYTMGWYRQAPGKERELVASITSGGITYYADSVKGRFTISRDNAKNTVYLQMNSLKPEDTAVYYCAKGSYRTTYGALGVKFGYWGQGTKVTVSS,high polyreactivity
19,QVQLVESGGGLVQAGGSLRLSCAASGFTFSWNAMGWYRQAPGKEREFVAAITSSGGSTYADSVKGRFTISRDNAKNTVYLQMNSLKPEDTAVYYCAAGGFSQHGHGYWGQGTQVTVSS,high polyreactivity
20,QVQLVESGGGLVQAGGSLRLSCAASGFTFGRNTMGWYRQAPGKERELVAAITRRGGTTHYADSVKGRFTISRDNAKNTVYLQMNSLKPEDTAVYYCAADPFNSYYGRYDYWGQGTQVTVSS,high polyreactivity

row,Sequence,polyreactivity (PSR sort gate)
1,QVQLVESGGGLVQAGGSLRLSCAASGSSFVLYAMGWYRQAPGKERELVAAISLSVGSTYYADSVKGRFTISRDNAKNTVYLQMNSLKPEDTAVYDCNARSSIVSYYWYHYWTREFDYWGQGTQVTVSS,low polyreactivity
2,QVQLVESGGGLVQAGGRLRLSCAASGSTVRYYAMGGYRQAPVKERELVAAITSGGRTYYADSVKGRFTISRDNAKNTVYLQMNSLKPEDTAVYYCNARRYGSGMDYWGQGTQVTVSS,low polyreactivity
3,QVQLVESGGGLVQAGGSLRLSCAASGFTFTRNAMGWYRQAPGKERELVAAISSSGTSTYYADSVKGRFTISRDNAKNTVYLQMNSLKPEDTAVYYCAKDFYRRYYSWGLGTQVTVSS,high polyreactivity
4,QVQLVESGGGLVQAGGSLRLTCAASGSTFTAYAMGWYRQAPGKERELVADISDSGGSTYYADSVKGRFTISRDNAKNTVYLQMNSLIPEDTAVYYCAVDVRAYVVSKFDSWGQGTQVTVSS,low polyreactivity
5,QFQLVESGGGLVQAGGSLRLSCAATGSIFRGNAMGWYRQAPGKERELVAGINRAGSTKYADSVKGRFTISRDNAKNTVYLQMNSLKPEDTAVYYCAAVRYERGLWSDYWGQGTQVTVSS,high polyreactivity
6,QVQLVESGGGLVQAGGSLRLICAASGLTFGSYAMGWYRQAPGKERELVAAISRSGGSTYYADSVKGRFTISRDNAKNTVYLQMNSLKPEDTAVYYCNAVNPYYAPTDRRVGYDYWGQGTQVTVSS,high polyreactivity
7,QVQLVESGGGLVQAGGSLRLSCAASGFTFVINDMGWYRQAPVKERELVADITSGGDTYYADSVKGRFTISRVNAKNTVYLQMYRLKPEDTAVYYCAADIYPDWIYLLYGYWGQGTQVNVSS,low polyreactivity
8,QVQLVESGGGLVQARGSLRLSCAASGSTFSYNDMGWYRQAPGKERDLVADINVSVGRTYYADSVKGRFTISRDNAKNTVFLQMNSLKPEDTAVYYCNATLYTITSYVYAYDYWGQGTQVTVSS,low polyreactivity
9,QVQLVESGGGLVQAGGSLRLICAASGRTCWKYVMGWYRQAPGKERDLVAVISSDGITNYADSVKGRFTISRDNAKNTVYLQMNSLKPEDTAVYYCNAGPDDYVGYWGKYDYWGQGTQVTVSS,low polyreactivity
10,QVQLVESAGGLVQAGGSLRLSCAASGFIFPRYAMGWYRPAPGKERELVAAISSSGGSTYYADSVKGRFTISRDNAKNTVYLQMNSLKPEDTAVYYCAARYQSDYWRYYYWGQGTQVTVSS,high polyreactivity
11,QVQLVESGGGLVQAGGSLRLSCAASGSTFQNNPMGSYRQAPGKERELVATISRRGGSTYYADSVKGRFTISRDNAKNTVYLQMNRLKPEDTAVYYCAAQAPNYAHRYYYWGQGTQVTVSS,high polyreactivity
12,QVQLVESGGGLVQAGGSLRLSCAAYGRIFNEYAKGWYRQAPGKERELVAAITYSDDSTYYADSVKGRFTISRDNAKNTVYLQLNSLKPEDTAVYYCNADTPVWDGHAYPVDYWGQGTQVTVSS,low polyreactivity
13,QVQLVESGGGLVQAGGSLRLSCAASGRIFYVYTMGWYRQARGKERELVAAISWSGGSTHYADSVKGRFTISRDNAKNTVYLQMNSLKTEYTAVYYCNKGVVSRVAFEYWGQGTQVTVSS,low polyreactivity
14,QVQLEESVGGLVQAGGSLRLTCAASGSTLSYYSMGWYRQAPGKERELVARITRSGGRTYYADSVKGRFTISRDNEKNTVYLQINSLKPEDTGVYYCNKVAYYSRRMDYWGQGTLVTVSS,high polyreactivity
15,QDQLVESGGGLVQAGGSLRLSCAASGITFAYYVMGWYRQATGKERELVAAISRSGSTYYADSVKGRFTISRDNAKNTVYLQMNSLKPEDTAVNYCAVLYIRWYTYEYWGQGTQVTVSS,high polyreactivity
16,QVQLVESGGGLVQAGGSLRLSCAASGRIFGRYTMGWYRQAPGKGRELDAAISDSGDSTYADSVKGRFTISRDNAKNSVYFQMNSLKPEDTAVYFCNAQSGSFAGHEYDYWGQGTQLTVSS,low polyreactivity
17,QVQLVESGGGLVQAGGSLRLSCAASGSIFRGNALGWYRQAPGKERELVAAITGSGGNTYYADSVKGRFTISRDNAKNTVYLQMNSLKPEDTAVYYCNAQRYRVVVYNSHGWQTRNYWGQGTQVTVSS,low polyreactivity
18,QVQLVESGGGLVQAGGSLRLSCAASGRIFTFNAMGWYRQAPGKERELVAAINSGGSRTYYADSVKGRFTISRDNAKNTVYLQMNSLKPEDTAVYYCAAGYSGWVRSSSPFYYWGQGTQVTVSS,high polyreactivity
19,QVQLVESGGGLVQAGGSLRLSCAASGRIFDVNAMGWYRQAPGKEREFVAAINSRGDSTYYADSVKGRFTISRDNAKNTVYLQMNSLKPEDTAVYYCNVRGYSYSYRFWRYDYWGQGTQVTVSS,high polyreactivity
20,QVQLVESGGGLVQAGGSLRLSCAASGRTFRIYAMGWYRHAPRKERELVAAIRWSGGTTYYADSVKGRFSISRDNAKNTVYLQMTSLKPEDTAVYYCAADSTNRYDYCGQGTQVTVSS,high polyreactivity
